Measured values from PMC6274998, “Mycobacterium tuberculosis ClpC1 N-Terminal Domain Is Dispensable for Adaptor Protein-Dependent Allosteric Regulation” (International Journal of Molecular Sciences, 2018).

Biological target: T1, ∆NTD-ClpC1 (ClpC1 truncation mutant lacking N-terminal residues M1-Y145) (Mycobacterium tuberculosis H37Rv, UniProt P9WPC9 146-848)
T1 construct: ClpC1, M. tuberculosis H37Rv, Rv3596c, lacking N-terminal residues M1-Y145 (begins at residue 146); also called ∆NTD-ClpC1 truncation; not shown: His6-SUMO, N-terminal, cleaved
T1 sequence: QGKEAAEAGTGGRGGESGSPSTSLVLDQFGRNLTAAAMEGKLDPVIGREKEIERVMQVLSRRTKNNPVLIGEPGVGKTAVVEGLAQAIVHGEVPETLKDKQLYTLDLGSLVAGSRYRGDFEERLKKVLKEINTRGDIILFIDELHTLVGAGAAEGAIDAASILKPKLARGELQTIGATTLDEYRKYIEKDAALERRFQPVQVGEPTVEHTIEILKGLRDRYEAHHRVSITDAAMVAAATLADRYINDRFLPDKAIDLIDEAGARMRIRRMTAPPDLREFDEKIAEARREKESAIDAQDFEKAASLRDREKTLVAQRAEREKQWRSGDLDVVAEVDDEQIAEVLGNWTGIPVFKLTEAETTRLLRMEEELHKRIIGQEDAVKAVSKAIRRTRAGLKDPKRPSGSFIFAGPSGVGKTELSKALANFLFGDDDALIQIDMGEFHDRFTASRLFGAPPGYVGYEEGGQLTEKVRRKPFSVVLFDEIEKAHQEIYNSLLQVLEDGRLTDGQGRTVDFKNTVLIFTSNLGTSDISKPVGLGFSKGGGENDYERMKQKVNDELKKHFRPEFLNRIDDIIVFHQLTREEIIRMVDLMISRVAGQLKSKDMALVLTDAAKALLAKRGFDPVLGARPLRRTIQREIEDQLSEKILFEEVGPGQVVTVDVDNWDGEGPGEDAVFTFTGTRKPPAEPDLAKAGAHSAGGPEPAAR
Assay: pull-down
Conditions: both partners purified

B1: His6-SUMO-ClpS (Mycobacterium tuberculosis ClpS adaptor protein, His6-SUMO fusion) (natural protein)
chain: MAVVSAPAKPGTTWQRESAPVDVTDRAWVTIVWDDPVNLMSYVTYVFQKLFGYSEPHATKLMLQVHNEGKAVVSAGSRESMEVDVSKLHAAGLWATMQQDR
notes: also called His6-ClpS; His6-tagged ClpS; not shown: His6, N-terminal, kept; SUMO, N-terminal, kept
  binding result: binds
